In patent US20230293647A1 one finds EC50 (read off the curve) data, which are given here for three substances.

The target of assay [1] is recombinant full length SARS-CoV-2 spike protein (SARS-CoV-2) (UniProt P0DTC2).
Assay [2] addresses FcγR on K562 cells (reported to express RNA for FcγRIIa and IIIa/b).

Turning to “ACE2-CR3022 scFv-Fc (from UniProt Q9BYF1 18-740) (Fc fusion)”, the EC50 (read off the curve) in assay [1] turned out to be 0.09 nM.
For “CR3022 scFv-ACE2-Fc (from UniProt Q9BYF1 18-740) (Fc fusion)”, the EC50 (read off the curve) in assay [1] was 0.06 nM.
For the substance “Inactive ACE2 (HH:NN) (18-740)-Fc (Fc fusion)”, the 50% effective concentration (EC50 (read off the curve)) in assay [2] came to 40 nM.

As a reminder, the EC50 (read off the curve) is the concentration at which the effect is half-maximal.
